Data published in patent publication US20140256786.
Read-outs that look alike come from different tables or passages of the source.

What was measured:
[1] = test system: GST-dMiroΔTM fusion protein (amino acids 1-634 of the full-length dMiro protein, transmembrane domain deleted) [GST: P08515]
[2] = biological target: GST-dMiroΔTM fusion protein (amino acids 1-634 of the full-length dMiro protein, transmembrane domain deleted) [GST: P08515]; remark: listed apart in the source

mammalian PINK1 protein affinity purified from HEK293 cells by immunoprecipitation
in vitro kinase assay [1]: also failed to phosphorylate GST-dMiroΔTM in these assays

B1: 2xGST-dPINK1 fusion protein with GST fused at both the N- and C-terminus of dPINK1 (protein)
chain: KEDELEGVCWEIREAASRLQNAWNHDEISDTLDSKFTIDDLEIGPPIAKGCAAVVYAADFKKDVASDGASLHTDAQPQATPAFAPNSWSTHEMMSPLQNMSRFVHNFGGSVDNVFHYSQPSAASDFVGAQSREQDQRHHEQQQHQNQEQEQHQNQEPSSSAFNVTSPANSNINSSVDSYPLALKMMFNYDIQSNALSILRAMYKETVPARQRGMNEAADEWERLLQNQTVHLPRHPNIVCMFGFFCDEVRNFPDGHLLYPVAQPQRINPQGYGRNMSLYLLMKRYDHSLRGLLDSQDLSTRNRILLLAQMLEAVNHLSRHGVAHRDLKSDNVLIELQDDAAPVLVLSDFGCCLADKVHGLRLPYVSHDVDKGGNAALMAPEIFNTMPGPFAVLNYGKADLWACGALAYEIFGNRNPFYSSSGGMARERGEMTLSLRNSDYRQDQLPPMSDACPPLLQQLVYNILNPNPSKRVSPDIAANVVQLFLWAPSNWLKAGGMPNSPEILQWLLSLTTKIMCEGRPQMGAGLMPVASCGNRRAYVEYLLICSFLARARLRRIRGALNWIQNVVA
in vitro kinase assay (P32 autoradiography) [2]: failed to show phosphorylation of GST-dMiroΔTM

B2: Drosophila PINK1 protein affinity purified from HEK293 cells by immunoprecipitation (protein)
chain: MSVRLLTVRLIKHGRYILRSYCKRDIHANILDQNQLKTRSKRGFPLPSTAANVLRTTPQQAAKSVVNVVPRTINSPSGSPFNGSGSSPTSSSGIFRVGQHARKLFIDNILSRVTTTYSEDLRQRATRKLFFGDSAPFFALIGVSLASGSGVLSKEDELEGVCWEIREAASRLQNAWNHDEISDTLDSKFTIDDLEIGPPIAKGCAAVVYAADFKKDVASDGASLHTDAQPQATPAFAPNSWSTHEMMSPLQNMSRFVHNFGGSVDNVFHYSQPSAASDFVGAQSREQDQRHHEQQQHQNQEQEQHQNQEPSSSAFNVTSPANSNINSSVDSYPLALKMMFNYDIQSNALSILRAMYKETVPARQRGMNEAADEWERLLQNQTVHLPRHPNIVCMFGFFCDEVRNFPDGHLLYPVAQPQRINPQGYGRNMSLYLLMKRYDHSLRGLLDSQDLSTRNRILLLAQMLEAVNHLSRHGVAHRDLKSDNVLIELQDDAAPVLVLSDFGCCLADKVHGLRLPYVSHDVDKGGNAALMAPEIFNTMPGPFAVLNYGKADLWACGALAYEIFGNRNPFYSSSGGMARERGEMTLSLRNSDYRQDQLPPMSDACPPLLQQLVYNILNPNPSKRVSPDIAANVVQLFLWAPSNWLKAGGMPNSPEILQWLLSLTTKIMCEGRPQMGAGLMPVASCGNRRAYVEYLLICSFLARARLRRIRGALNWIQNVVA
in vitro kinase assay [2]: also failed to phosphorylate GST-dMiroΔTM in these assays
